Starred links: 1 amine or outer side, 2 acyl side, 3 side chain; linkers in the order of their positions; H or OH if unused. Non-standard residues stand in square brackets, D forms with d. Groups on a side chain read outwards from the residue. No end group written: not given here. *: point of attachment. C16 diacid = O=C(O)CCCCCCCCCCCCCCC(=O)*; C15 diacid = O=C(O)CCCCCCCCCCCCCC(=O)*; γGlu = O=C(O)[C@H](CCC(=O)[*:2])N[*:1]; NMeY = CN[C@@H](Cc1ccc(O)cc1)C(=O)O; AEEA = NCCOCCOCC(=O)O; Aib = CC(C)(N)C(=O)O
T1: full-length human GIPR with an N-terminal FLAG tag (human, UniProt P48546 22-466)
T1 sequence (looked up): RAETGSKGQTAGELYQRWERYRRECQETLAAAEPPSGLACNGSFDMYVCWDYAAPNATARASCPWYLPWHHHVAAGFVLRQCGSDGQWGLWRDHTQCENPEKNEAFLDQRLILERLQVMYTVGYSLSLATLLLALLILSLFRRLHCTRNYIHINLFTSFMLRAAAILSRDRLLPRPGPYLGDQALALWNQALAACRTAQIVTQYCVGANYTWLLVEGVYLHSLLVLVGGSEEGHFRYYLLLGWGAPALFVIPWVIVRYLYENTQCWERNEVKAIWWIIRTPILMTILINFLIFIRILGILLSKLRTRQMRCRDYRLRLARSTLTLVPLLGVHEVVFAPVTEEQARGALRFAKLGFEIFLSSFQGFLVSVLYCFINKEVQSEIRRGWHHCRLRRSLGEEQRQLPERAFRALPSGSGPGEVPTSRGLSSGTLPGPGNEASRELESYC

B1: Compound 88 (peptide)
peptide: [NMeY][Aib]EGTFISDYSIALDR[Aib]AQ[Aib]NFVNWLLAK([AEEA-AEEA-γGlu-γGlu-C15 diacid])RPSSGAPPPS-NH2
modifications: N-terminus assumed
SMILES: CC[C@H](C)[C@H](NC(=O)[C@H](CO)NC(=O)[C@H](Cc1ccc(O)cc1)NC(=O)[C@H](CC(=O)O)NC(=O)[C@H](CO)NC(=O)[C@@H](NC(=O)[C@H](Cc1ccccc1)NC(=O)[C@@H](NC(=O)CNC(=O)[C@H](CCC(=O)O)NC(=O)C(C)(C)NC(=O)[C@H](Cc1ccc(O)cc1)NC)[C@@H](C)O)[C@@H](C)CC)C(=O)N[C@@H](C)C(=O)N[C@@H](CC(C)C)C(=O)N[C@@H](CC(=O)O)C(=O)N[C@@H](CCCNC(=N)N)C(=O)NC(C)(C)C(=O)N[C@@H](C)C(=O)N[C@@H](CCC(N)=O)C(=O)NC(C)(C)C(=O)N[C@@H](CC(N)=O)C(=O)N[C@@H](Cc1ccccc1)C(=O)N[C@H](C(=O)N[C@@H](CC(N)=O)C(=O)N[C@@H](Cc1c[nH]c2ccccc12)C(=O)N[C@@H](CC(C)C)C(=O)N[C@@H](CC(C)C)C(=O)N[C@@H](C)C(=O)N[C@@H](CCCCNC(=O)COCCOCCNC(=O)COCCOCCNC(=O)CC[C@H](NC(=O)CC[C@H](NC(=O)CCCCCCCCCCCCCC(=O)O)C(=O)O)C(=O)O)C(=O)N[C@@H](CCCNC(=N)N)C(=O)N1CCC[C@H]1C(=O)N[C@@H](CO)C(=O)N[C@@H](CO)C(=O)NCC(=O)N[C@@H](C)C(=O)N1CCC[C@H]1C(=O)N1CCC[C@H]1C(=O)N1CCC[C@H]1C(=O)N[C@@H](CO)C(N)=O)C(C)C
B2: Compound 91 (peptide)
peptide: [NMeY][Aib]EGTFISDYSIALDR[Aib]AQ[Aib]NFVNWLLAQK([AEEA-AEEA-γGlu-γGlu-C15 diacid])-NH2
modifications: N-terminus assumed
SMILES: CC[C@H](C)[C@H](NC(=O)[C@H](CO)NC(=O)[C@H](Cc1ccc(O)cc1)NC(=O)[C@H](CC(=O)O)NC(=O)[C@H](CO)NC(=O)[C@@H](NC(=O)[C@H](Cc1ccccc1)NC(=O)[C@@H](NC(=O)CNC(=O)[C@H](CCC(=O)O)NC(=O)C(C)(C)NC(=O)[C@H](Cc1ccc(O)cc1)NC)[C@@H](C)O)[C@@H](C)CC)C(=O)N[C@@H](C)C(=O)N[C@@H](CC(C)C)C(=O)N[C@@H](CC(=O)O)C(=O)N[C@@H](CCCNC(=N)N)C(=O)NC(C)(C)C(=O)N[C@@H](C)C(=O)N[C@@H](CCC(N)=O)C(=O)NC(C)(C)C(=O)N[C@@H](CC(N)=O)C(=O)N[C@@H](Cc1ccccc1)C(=O)N[C@H](C(=O)N[C@@H](CC(N)=O)C(=O)N[C@@H](Cc1c[nH]c2ccccc12)C(=O)N[C@@H](CC(C)C)C(=O)N[C@@H](CC(C)C)C(=O)N[C@@H](C)C(=O)N[C@@H](CCC(N)=O)C(=O)N[C@@H](CCCCNC(=O)COCCOCCNC(=O)COCCOCCNC(=O)CC[C@H](NC(=O)CC[C@H](NC(=O)CCCCCCCCCCCCCC(=O)O)C(=O)O)C(=O)O)C(N)=O)C(C)C
B3: Compound 94 (peptide)
peptide: [NMeY][Aib]EGTFISDYSI[Aib]K([AEEA-γGlu-γGlu-C15 diacid])DR[Aib]AQ[Aib]NFVNWLLAQRPSSGAPPPS-NH2
modifications: N-terminus assumed
SMILES: CC[C@H](C)[C@H](NC(=O)[C@H](Cc1ccccc1)NC(=O)[C@@H](NC(=O)CNC(=O)[C@H](CCC(=O)O)NC(=O)C(C)(C)NC(=O)[C@H](Cc1ccc(O)cc1)NC)[C@@H](C)O)C(=O)N[C@@H](CO)C(=O)N[C@@H](CC(=O)O)C(=O)N[C@@H](Cc1ccc(O)cc1)C(=O)N[C@@H](CO)C(=O)N[C@H](C(=O)NC(C)(C)C(=O)N[C@@H](CCCCNC(=O)COCCOCCNC(=O)CC[C@H](NC(=O)CC[C@H](NC(=O)CCCCCCCCCCCCCC(=O)O)C(=O)O)C(=O)O)C(=O)N[C@@H](CC(=O)O)C(=O)N[C@@H](CCCNC(=N)N)C(=O)NC(C)(C)C(=O)N[C@@H](C)C(=O)N[C@@H](CCC(N)=O)C(=O)NC(C)(C)C(=O)N[C@@H](CC(N)=O)C(=O)N[C@@H](Cc1ccccc1)C(=O)N[C@H](C(=O)N[C@@H](CC(N)=O)C(=O)N[C@@H](Cc1c[nH]c2ccccc12)C(=O)N[C@@H](CC(C)C)C(=O)N[C@@H](CC(C)C)C(=O)N[C@@H](C)C(=O)N[C@@H](CCC(N)=O)C(=O)N[C@@H](CCCNC(=N)N)C(=O)N1CCC[C@H]1C(=O)N[C@@H](CO)C(=O)N[C@@H](CO)C(=O)NCC(=O)N[C@@H](C)C(=O)N1CCC[C@H]1C(=O)N1CCC[C@H]1C(=O)N1CCC[C@H]1C(=O)N[C@@H](CO)C(N)=O)C(C)C)[C@@H](C)CC
B4: Compound 95 (peptide)
peptide: [NMeY][Aib]EGTFISDYSI[Aib]K([GGEEE-C15 diacid])DR[Aib]AQ[Aib]NFVNWLLAQRPSSGAPPPS-NH2
B5: Compound 85 (peptide)
peptide: [NMeY][Aib]EGTFISDYSIALDR[Aib]AQ[Aib]KFVNWLLAQS-NH2
modifications: not fully specified (residue 21)
B6: Compound 93 (peptide)
peptide: [NMeY][Aib]EGTFISDYSIALDR[Aib]AQ[Aib]K([AEEA-AEEA-γGlu-γGlu-C15 diacid])FVNWLLAQSPSSGAPPPS-NH2
modifications: N-terminus assumed
SMILES: CC[C@H](C)[C@H](NC(=O)[C@H](CO)NC(=O)[C@H](Cc1ccc(O)cc1)NC(=O)[C@H](CC(=O)O)NC(=O)[C@H](CO)NC(=O)[C@@H](NC(=O)[C@H](Cc1ccccc1)NC(=O)[C@@H](NC(=O)CNC(=O)[C@H](CCC(=O)O)NC(=O)C(C)(C)NC(=O)[C@H](Cc1ccc(O)cc1)NC)[C@@H](C)O)[C@@H](C)CC)C(=O)N[C@@H](C)C(=O)N[C@@H](CC(C)C)C(=O)N[C@@H](CC(=O)O)C(=O)N[C@@H](CCCNC(=N)N)C(=O)NC(C)(C)C(=O)N[C@@H](C)C(=O)N[C@@H](CCC(N)=O)C(=O)NC(C)(C)C(=O)N[C@@H](CCCCNC(=O)COCCOCCNC(=O)COCCOCCNC(=O)CC[C@H](NC(=O)CC[C@H](NC(=O)CCCCCCCCCCCCCC(=O)O)C(=O)O)C(=O)O)C(=O)N[C@@H](Cc1ccccc1)C(=O)N[C@H](C(=O)N[C@@H](CC(N)=O)C(=O)N[C@@H](Cc1c[nH]c2ccccc12)C(=O)N[C@@H](CC(C)C)C(=O)N[C@@H](CC(C)C)C(=O)N[C@@H](C)C(=O)N[C@@H](CCC(N)=O)C(=O)N[C@@H](CO)C(=O)N1CCC[C@H]1C(=O)N[C@@H](CO)C(=O)N[C@@H](CO)C(=O)NCC(=O)N[C@@H](C)C(=O)N1CCC[C@H]1C(=O)N1CCC[C@H]1C(=O)N1CCC[C@H]1C(=O)N[C@@H](CO)C(N)=O)C(C)C
B7: Compound 8 (peptide)
peptide: [NMeY][Aib]EGTFISDYSIALDRIK([AEEA-AEEA-γGlu-C16 diacid])Q[Aib]NFVNWLLAQK
B8: Compound 80 (peptide)
peptide: [NMeY][Aib]EGTFISDYSIAK([G5-γGlu-C15 diacid])DR[Aib]AQ[Aib]DFVNWLLAQRPSSGAPPPS-NH2
B9: Compound 81 (peptide)
peptide: [NMeY][Aib]EGTFISDYSIAK([G5-γGlu-γGlu-C15 diacid])DR[Aib]AQ[Aib]NFVNWLLAQSPSSGAPPPS-NH2
B10: Compound 92 (peptide)
peptide: [NMeY][Aib]EGTFISDYSIALDR[Aib]AQ[Aib]K([AEEA-AEEA-γGlu-C15 diacid])FVNWLLAQSPSSGAPPPS-NH2
modifications: N-terminus assumed
SMILES: CC[C@H](C)[C@H](NC(=O)[C@H](CO)NC(=O)[C@H](Cc1ccc(O)cc1)NC(=O)[C@H](CC(=O)O)NC(=O)[C@H](CO)NC(=O)[C@@H](NC(=O)[C@H](Cc1ccccc1)NC(=O)[C@@H](NC(=O)CNC(=O)[C@H](CCC(=O)O)NC(=O)C(C)(C)NC(=O)[C@H](Cc1ccc(O)cc1)NC)[C@@H](C)O)[C@@H](C)CC)C(=O)N[C@@H](C)C(=O)N[C@@H](CC(C)C)C(=O)N[C@@H](CC(=O)O)C(=O)N[C@@H](CCCNC(=N)N)C(=O)NC(C)(C)C(=O)N[C@@H](C)C(=O)N[C@@H](CCC(N)=O)C(=O)NC(C)(C)C(=O)N[C@@H](CCCCNC(=O)COCCOCCNC(=O)COCCOCCNC(=O)CC[C@H](NC(=O)CCCCCCCCCCCCCC(=O)O)C(=O)O)C(=O)N[C@@H](Cc1ccccc1)C(=O)N[C@H](C(=O)N[C@@H](CC(N)=O)C(=O)N[C@@H](Cc1c[nH]c2ccccc12)C(=O)N[C@@H](CC(C)C)C(=O)N[C@@H](CC(C)C)C(=O)N[C@@H](C)C(=O)N[C@@H](CCC(N)=O)C(=O)N[C@@H](CO)C(=O)N1CCC[C@H]1C(=O)N[C@@H](CO)C(=O)N[C@@H](CO)C(=O)NCC(=O)N[C@@H](C)C(=O)N1CCC[C@H]1C(=O)N1CCC[C@H]1C(=O)N1CCC[C@H]1C(=O)N[C@@H](CO)C(N)=O)C(C)C
B11: Compound 82 (peptide)
peptide: [NMeY][Aib]EGTFISDYSIAK([G5-γGlu-C15 diacid])DR[Aib]AQ[Aib]NFVNWLLAQSPSSGAPPPS-NH2

Key:
[1] = molecular target: T1, full-length human GIPR with an …; experiment: cell-based or functional assay
[2] = molecular target: full-length human GLP-1R with an N-terminal FLAG tag (human, UniProt P43220 24-463); experiment: cell-based or functional assay

| Binder | Human GIPR cAMP, HEK293T EC50 [1] [pM] | Human GLP1R cAMP HEK293T EC50 [2] [nM] |
| --- | --- | --- |
| B1 | 0.6 | 166 |
| B2 | 0.8 | 126 |
| B3 | 0.6 | 501 |
| B4 | 0.2 | 537 |
| B5 | 0.9 | 63.1 |
| B6 | 0.2 | 490 |
| B7 | 0.1 | 100 |
| B8 | 0.4 | 468 |
| B9 | 0.2 | 1000 |
| B10 | 1.3 | 74.1 |
| B11 | 0.3 | 295 |

From patent US20220227830A1, “QD DOSING OF GIP RECEPTOR AGONIST PEPTIDE COMPOUNDS AND USES THEREOF” (Takeda Pharmaceutical Company Limited, priority 2020, published 2022)
